Results as given in a protein production outcome set (Wang et al. 2014).

Assay: label from the status in PepcDB records
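Further: failed if final PepcDB status was selected cloned or expressed and not failed if soluble or beyond.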

Row | Sequence | protein production
1 | MNYDMSSYFEDPEFKEALAKYEGMVENHTPAYFEADELIDIAEYYTLKGRHKDADKAIDLTLQLHPENTDALVFRIRSLMLQNKKEEAKVVAQLIANSTDRECRFLQADMLMEEDRIEEAEEIFKQLVMDEEYEVDTLLDIIQDYTNANQEEYAGQWVDCLFAHSDMQTLPKTNQRLRDVLCDYYSTFNKPDLAIPYLNMTLNEYPYSIEHWNELGKCHLQQCQYEEANEALDFALAIDDENTDSLTLKAFGYHQAGNLKESCDYYLRLANVSKNKTKAYLALAQIYLEMRDHASAISYIEKLINRKSGLTDYELAELYSDTALCHAYLGHTENGYKYINQALELNEHDAEIRIAAGRFFTIEAQKSDISEEEQENNLRNAEHQFTRALEFTPKEERFDVLFKIGSLYFDEHNFEYANQYFELINKEFPEDADATYFFLAYGYYHQQESASFMHYLAKIRKEIPDMYATMGTGDTILMTDTYFNEALRAIKEDVSTGKINLNKYL | failed
2 | MNYECLIGVLSCLLVALPKGNCHSISGLNSTLNLPEIRGDQFLYFGFGSNMLIKRIHIQNPSAVRIGPALLPDYRLDFALESAGWSGSVATIVPTQGDHVWGTLWKIDLSNLPDIDSQEGVSQGIYEPRTVYVKLHGESESTPARAYLLTKQPESNLYELPKDSIPLSRQPSKTYLQCLVKGAIESSVPEDYVQRLRSIKHNGQVNSYLERKLELGGVTL | failed
3 | MNYEIIDCIDSGTEYCPCHLAESGNCILCSQLNGKDFCDCVNWKGVCIYQEYTWNHNKAKKERSECICKIIKREEIDNNLIVLTIFIRKKLAEDLLYPGSYVFLRPTKSSRYYSSPISIMEASSDENIIKVIIEVKGIKTKSINELKEKDDIVLKGPYWNGVLGLKNIHSAKEGISLIIARGIGEAPIVPIMKKLYSNGNKVVVIADRGKFKANLIDKYLEEFSSETYNFNTLNKDGELPEDFKDFLLNFIRYNKVNLIHISGPNILTSKILDVVDEDIKISCSNNAKMCCGEGICGACSNIYDDDKMKRMCKVQIDPRYLFKGLRSI | failed
4 | MNYFPDEVIEHVFDFVASHKDRNSISLVCKSWHKIERFSRKEVFIGNCYAINPERLIRRFPCLKSLTLKGKPHFADFNLVPHEWGGFVHPWIEALARSRVGLEELRLKRMVVTDESLDLLSRSFANFKSLVLVSCEGFTTDGLASIAANCRHLRELDLQENEIDDHRGQWLNCFPDSCTTLMSLNFACLKGETNVAALERLVARSPNLKSLKLNRAVPLDALARLMSCAPQLVDLGVGSYENEPDPESFAKLMTAIKKYTSLRSLSGFLEVAPLCLPAFYPICQNLISLNLSYAAEIQGNHLIKLIQLCKRLQRLWILDSIGDKGLAVVAATCKELQELRVFPSDVHGEEDNNASVTEVGLVAISAGCPKLHSILYFCKQMTNAALIAVAKNCPNFIRFRLCILEPHKPDHITFQSLDEGFGAIVQACKGLRRLSVSGLLTDQVFLYIGMYAEQLEMLSIAFAGDTDKGMLYVLNGCKKMRKLEIRDSPFGNAALLADVGRYETMRSLWMSSCEVTLGGCKRLAQNSPRLNVEIINENENNGMEQNEEDEREKVDKLYLYRTVVGTRKDAPPYVRIL | failed
5 | MNYKELLEFNDYAMDLTIRMAHHSTAIENNPLSLAETISILTTEYIPREMPQRAFFEVKNYQNMLFFLLENLNKGQSVDSFFIRELHGILMNFLLPNKGAFKTTDNTILGASFETTPIFKCLWL | failed
6 | MNYKLTLHPGSNPVEEFTSIPHGVTSLDLSLNNLYSISTVELIQAFANTPASVTSLNLSGNSLGFKNSDELVQILAAIPANVTSLNLSGNFLSYKSSDELVKTLAAIPFTITVLDLGWNDFSSKSSSEFKQAFSNLPASITSLNLRGNDLGIKSSDELIQILAAIPANVNSLNLRGNNLASKNCAELAKFLASIPASVTSLDLSANLLGLKSYAELAYIFSSIPNHVVSLNLCLNCLHGPSLENLKLLKDSLKHLQTVYLDYDIVKNMSKEQCKALGAAFPNIQKIILVDKNGKEIHPSHSIPISNLIRELSGKADVPSLLNQCLIFAQKHQTNIEDLNIPDELRESIQTCKPLLEHHHHHH | not failed
7 | MNYSIRLFKIMGIPIELHITFILFLVVIIGLSIMNNSIFWAVLFILLFVSVVLHELGHSYVAKKYGVKIEKILLLPIGGVAMMDKIPKEGELRIGIAGPLVSFIIGIVLLIVSQFFDININGYPLLYTLSLLNLMLGGFNLIPAFPMDGGRILRAILSKKYGYLKSTKIAANIGKSLALIMLLFGLLSMNIILILVSLFVYFGAEQESRVVEVETIFKNIKAKDIMTPNPVYVTPDMSIEEFLDFMLKHKYFGYPVVENGKLVGCIGIGNIHKKEGTVRDYMEKPVVVSEDTDIKEILRKMANTDRVFVVEGGKLKGIISKTDILRAMSILELKEELKD | failed
8 | MNYSSRQQPKRNWLRKVDWILVLVISLLALTSVILISSAMGGGQYSANFSIRQIIYYIFGAIIAFLIMIISPKKIKNNTYILYSIFCVLLIGLLILPETSITPIINGAKSWYSFGPISIQPSEFMKIILILALAKTISKHNQFTFNKSFQSDLMLFFKILGVSIIPMALILLQNDLGTTLVLCAIIAGVMLVSGITWRILAPLFIVAFVSGSSIILAIIYKPSLIENLLGIKMYQMGRINSWLDPYSYSSGDGYHLTESLKAIGSGQLLGKGYNHGEVYIPENHTDFIFSVIGEEMGFIGSVLLILLFLFLIFHLIRLASKIDSQFNKVFIIGYVSLIVFHVLQNIGMTVQLLPITGIPLPFISYGGSSLWSLMTGIGVVLSIYYHEPQRYEITTLSKKSNTI | failed
9 | MPADWLARPRFVSAFSIVVFLLLAAFGEYVVRIEAERLRVIAQNQVLAEASTIRARLEGELYSTLYLANGLSSYVSAHKALDPAAVKIILSTVFGYGRHLRNIVLAPDNEVRFTYPLKGNEKVIGFRYQDNAEQWRAVKRAMETRTTVLSGPVDLVQGGRGLISRTPVFLPDGEYWGIVALVINIDSLFATINKDRRPARITWALRSNDETGEKGRILFGDAWLFDHDHVNLSIAIPGGSWELAATPAEGWRPPGKRLLVLRIATLALSGLIAALVFLVLFERIRIQHLALHDSLTDLPNRRLLDDRLERAIAQARRNRDGFALLYVDLDDFKPINDRFGHRAGDHVLVEIARRLRGALRRADTVARVGGDEFMLILPGARGRHGAMTVVQKLAGIICQPIGYKGQYLNVSASIGVSTYPENGVTADALISHADGSMYRFKQHRKSPTDINGNQRSGAVSSEVS | failed
10 | MPAIEVGETFTETRTFRPEDVDQFTALSGDDQPRHTEPDGDGRRMVQGLLTASLLTSIGGDLEVLASRMDLQFQRPVYTGETLVCELTVVSADPHTDGGVALVGDVAVRRVNRDDNSGQADTAAPNSADSAPAGTVVLEATVEGLIRE | failed
11 | MPALSGLHLAPSVASFLCLAWTVALYFAVKPLYQRLPRIWLSPAIVVPALTIPLLLITGIPYAEYVADTRWMVWLLGPATIAFAVPIYEHREIVRRHWIALALGVIAGMLVAMLSARLLAEAFHFSSEVSSSLMARSVSTPFAVAVVAHTGGSAELVSLFTVMTGLAGMIVGDTVLGLLRLRSPVAQGASLGTAAHGFGTARARQRHAEEGVVASLTMVLAGVLMVIAGPTLTGWVTALVG | failed
12 | MPAPHPDSSVAPTTRLIAERALAAVFQPIVDLGSGTVVGYEGLIRGPRGTDLEPPAALFAQAARDGTTIALEQAAALACLDAFAALGCDGKLFLNFSAGTIVQLVRERERARQLLGRAGVGAERIVIELTEQTAMPDVARIEPAVASLRDAGIQFALDDYGTANASMNLWLRLHPDVVKIDRFFIHDIARDPLKFEAVRAMQHFAHASGAQLIAEGIENASDLIVVRDMGICCVQGFLLGRPNARPSPVVAPAARDAIRTPHIAVFPGAMRTARPAGTIAAKMLVPAPALPRDATSNDVLDLFNRMPGLHAVALVERGRPVALVNRRGFIDRFTLPYHREVFGKKPCLQFANDAPLMIDNATSVEQLAMLLASHDQRYLADGFVITEHGRYLGLGTGESLVRAVTEMRIEAARYANPLTFLPGNIPISAHIDRLLERDAGFHACYVDLNQFKPFNDQYGYWQGDEVLKFAATVLAGVCDPQRDFLGHVGGDDFLVLFQRDDWRARATDAIARFNDGAQRFYTQADRLAGGLRGEDRHGNPAFFGFVTMAIGAVGVPAGAHGAMRYGSDEIASVAALAKRRAKQQPGGLAVVDLDAGRAALRERGEPPLAAAG | failed
13 | MPAQQAEQAANLGLAGFQFLAQGVFAALLLQLHAFEFGARLTADLPLALLVGMLGAEGLFGLARAVFAHPLGGRLGLAARLGPGFAGFHERLYLRNVTQSE | failed
14 | MPAQTNLKPVLTAAQVNVLMETVYPQLNEQFKYYEAIDVFPGGCTVRLNAGERHLRPGGTVSGPSLFTLADIGGYVCVLSHAGPDALSVTVNLDINFVRKAEAGPIDGHCRILKLGKSLMVFAIDIVAGPEGQTIAHATGTYSIPPKRIGDVVK | failed
15 | MPASCQETARLLLRAPTLDDLPQACAIHGDPQTNRFNPNGPINAAACADKLHGWIEHWQQHGFGYWAIALRSDPQRLIGFGGIMQGFFGHEPGLNLYFRLRPEAWGQGYAAEMARAALHLAFSELHAPRVTGLVRPDNLPSRRALERLGLSLDGELDDFPGQAPSLLYRISAPDNPVPG | failed
16 | MPASVMTDLSAAWAAFEAHDYALAERQAQALLAHPATASGARFMLGYVYAFMDRFDEARASFQALQQQAQKSGDHTAEHRALHQVGMVERMAGNWDAARRCFLEERELLASLPEDPLAASANAYEVATVALHFGDLAGARQEYEKSLVYAQQADDQVAIACAFRGLGDLAQQEKNLLEAQQHWLRARDIFAELEDSEAVNELMTRLNGTEG | failed
17 | MPAVARIDPKTIFTPDEWARLTHRSSARGLWLVAHAWGCIALAVALVTIWPNPLTWLIAVMIVGTRQLGLAILMHEAAHGGLHCNPKLNEWIGQWLCAVPVGADLPAYRRYHLQHHKYTQQPEDPDLVLSAPFPISKDSFVRKAIRDLTGQTFVKQRLPALKALFAPADSGAPKHDSFVASGKARTQRFLAANAVLLALFWLAGAGVWFVGVWLVAMATWLPLVTRVRNIAEHACTSTGADPFSQARTTLANPIERALIAPYWVNYHAEHHLFMYLPCYNLPEAHRLLRDKGLIDRVTVAPSYRDVLKLATTRPRAVAAE | failed
18 | MPCVQAQYGSSPQGASPASQSYSYHSSGEYSSDFLTPEFVKFSMDLTNTEITATTSLPSFSTFMDNYSTGYDVKPPCLYQMPLSGQQSSIKVEDIQMHNYQQHSHLPPQSEEMMPHSGSVYYKPSSPPTPTTPGFQVQHSPMWDDPGSLHNFHQNYVATTHMIEQRKTPVSRLSLFSFKQSPPGTPVSSCQMRFDGPLHVPMNPEPAGSHHVVDGQTFAVPNPIRKPASMGFPGLQIGHASQLLDTQVPSPPSRGSPSNEGLCAVCGDNAACQHYGVRTCEGCKGFFKRTVQKNAKYVCLANKNCPVDKRRRNRCQYCRFQKCLAVGMVKEVVRTDSLKGRRGRLPSKPKSPQEPSPPSPPVSLISALVRAHVDSNPAMTSLDYSRFQANPDYQMSGDDTQHIQQFYDLLTGSMEIIRGWAEKIPGFADLPKADQDLLFESAFLELFVLRLAYRSNPVEGKLIFCNGVVLHRLQCVRGFGEWIDSIVEFSSNLQNMNIDISAFSCIAALAMVTERHGLKEPKRVEELQNKIVNCLKDHVTFNNGGLNRPNYLSKLLGKLPELRTLCTQGLQRIFYLKLEDLVPPPAIIDKLFLDTLPF | not failed
19 | MPDASAENPWLPLRQLTPARIALGRTGTSLPTRPQLDFQYAHAQARDAVHLPFDHAAISDGLRQRGRDSLLLHSAAADRHVYLQRPDLGRRLDEASVQRLREHAAGYDGQIDLAIVVADGLSALAVQRHTLPFLERLEEQALAEGWSLSPVVLVEQGRVAVADEIGELLRAKMSVILIGERPGLSSPDSLGLYFTWAPRVGLTDAYRNCISNVRLEGLSYGMAAHRLLYLMREACRRQLSGVNLKDEAEVQALDGEAPRTGNFLLAR | failed
20 | MPDLGLTDAESLGHCLFDTGFGVCGIAWRAFEGKDEAPVVTLFLLPEATAAGTAAAMARRCGGSPTVPPPAIAEVIEKVRRHFRGDLQDFSRVRVEPDGAGPFARAVYSAARDVPAGQIRTYGELARALNRPAAARAVGQALGRNPVPLIIPCHRILGAGGKLGGFSAHGGVATKARMLRLEGVAV | failed
